Experimental data from paper PMC7967050 (2021).

Biological target: Recombinant human CD38 extracellular domain (amino acids 43–300, hCD38-ECD) (human, UniProt P28907 43-300, biotin (EZ-Link NHS-PEG4-biotin) for panning and for capture on the SA biosensor; not said for the cross-linking)
Assay: BLI

koff	Binder
0.0034 s⁻¹	anti-CD38 scFv antibody RP02 (scFv, V domains shown) VH: PAQLVESGPGLVKPSGTLSLTCAVSGGSISSSNWWSWVRQPPGKGLEWIGEIYHSGSTNYNPSLKSRVTISVDKSKNQFSLKLSSVTAADTAVYYCAREDYYYYMDVWGKGTTVTVQS VL: QSVLTQPPSVSAAPGQKVTISCSGSSSNIGNNYVSWYQQLPGTAPKLLIYDNNKRPSGIPDRFSGSKSGTSATLGITGLQTGDEADYYCGTWDSSLSAGVFGGGTKLTVL
0.00012 s⁻¹	high-affinity anti-CD38 antibody 028 (scFv) (scFv, V domains shown) VH: QVQLVQSGAEVKKPGSSVKVSCKAFGGTFSSYAISWVRQAPGQGLEWMGRIIRFLGIANYAQKFQGRVTLIADKSTNTAYMELSSLRSEDTAVYYCAGEPGERDPDAVDIWGQGTMVTVSS VL: DIQMTQSPSSLSASVGDRVTITCRASQGIRSWLAWYQQKPEKAPKSLIYAASSLQSGVPSRFSGSGSGTDFTLTISSLQPEDFATYYCQQYNSYPLTFGGGTKVEIK
